# Source: the RNAGym collection of RNA variant scans (doi:10.1093/molbev/msab373)
# B1: Azoarcus group I ribozyme (parent)
# chain: GUGCCUUGCGCCGGGAAACCACGCAAGGGAUGGUGUCAAAUUCGGCGAAACCUAAGCGCCCGCCCGGGCGUAUGGCAACGCCGAGCCAAGCUUCGGCGCCUGCGCCGAUGAAGGUGUAGAGACUAGACGGCACCCACCUAAGGCAAACGCUAUGGUGAAGGCAUAGUCCAGGGAGUGGCGAAAGUCACACAAACCGG
# Variants of: B1
# Assay: reverse-splicing fitness (ratio to wild type); higher = more active; in vitro selection; Mg2+ level not given
# Procedure, shortened: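 An in vitro group I ribozyme library with randomized positions was T7-transcribed and gel-purified. In triplicate, 10 pmol RNA in EPPS pH 7.5 was reacted with 50 pmoles of a 30-nt RNA substrate for 1 h at 37 °C across several added MgCl2 levels (1–48 mM), then stopped with EDTA. Products were reverse transcribed from a substrate-complementary primer, PCR-amplified and sequenced (HiSeq 4000). Fitness is a variant's read proportion after selection over that before, normalised to wild type.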
row,Variant,reverse-splicing fitness
1,GUGCCUUGCGCCGGGAAACCACGCAAGGGAUGGUGUCAAAUUCGGCGAAACCUAAGCGCCCGCCCGGGCGUAUGGCAACGCGGAGCCAAGCUUCGGCGCCUGCGCCGAUGGAGGUGUAGCGACUAGACGGCACCCACCUAAGGCCAACGUUAUGGUGAAGGCAUAGUCGAGGGAGAGGCGAAAGUCACACAAACCGG [C82G A111G A120C A145C C150U C169G U176A],0.0242
2,GUGCCUUGCGCCGGGAAACCACGCAAGGGAUGGUGUCAAAUUCGGCGAAACCUAAGCGCCCGCCCGGGCGUAUGGCAACGCGGAGCCAAGCUUCGGCGCCUGCGCCGAUGGAGGUGUAGCGACUAGACGGCACCCACCUAAGGCCAACGGUAUGGUGAAGGCAUAGUCUAGGGAGUGGCGAAAGUCACACAAACCGG [C82G A111G A120C A145C C150G C169U],0.00968
3,GUGCCUUGCGCCGGGAAACCACGCAAGGGAUGGUGUCAAAUUCGGCGAAACCUAAGCGCCCGCCCGGGCGUAUGGCAACGCGGAGCCAAGCUUCGGCGCCUGCGCCGAUGGAGGUGUAGCGACUAGACGGCACCCACCUAAGGCCAACGGUAUGGUGAAGGCAUAGUCGAGGGAGUGGCGAAAGUCACACAAACCGG [C82G A111G A120C A145C C150G C169G],0.00805
4,GUGCCUUGCGCCGGGAAACCACGCAAGGGAUGGUGUCAAAUUCGGCGAAACCUAAGCGCCCGCCCGGGCGUAUGGCAACGCGGAGCCAAGCUUCGGCGCCUGCGCCGAUGGAGGUGUAGCGACUAGACGGCACCCACCUAAGGCCAACGUUAUGGUGAAGGCAUAGUCCAGGGAGUGGCGAAAGUCACACAAACCGG [C82G A111G A120C A145C C150U],0.0209
5,GUGCCUUGCGCCGGGAAACCACGCAAGGGAUGGUGUCAAAUUCGGCGAAACCUAAGCGCCCGCCCGGGCGUAUGGCAACGCGGAGCCAAGCUUCGGCGCCUGCGCCGAUGGAGGUGUAGCGACUAGACGGCACCCACCUAAGGCCAACGUUAUGGUGAAGGCAUAGUCCAGGGAGCGGCGAAAGUCACACAAACCGG [C82G A111G A120C A145C C150U U176C],0.0167
6,GUGCCUUGCGCCGGGAAACCACGCAAGGGAUGGUGUCAAAUUCGGCGAAACCUAAGCGCCCGCCCGGGCGUAUGGCAACGCGGAGCCAAGCUUCGGCGCCUGCGCCGAUGGAGGUGUAGCGACUAGACGGCACCCACCUAAGGCCAACGUUAUGGUGAAGGCAUAGUCCAGGGAGGGGCGAAAGUCACACAAACCGG [C82G A111G A120C A145C C150U U176G],0.00724
7,GUGCCUUGCGCCGGGAAACCACGCAAGGGAUGGUGUCAAAUUCGGCGAAACCUAAGCGCCCGCCCGGGCGUAUGGCAACGCGGAGCCAAGCUUCGGCGCCUGCGCCGAUGGAGGUGUAGCGACUAGACGGCACCCACCUAAGGCCAACGUUAUGGUGAAGGCAUAGUCCAGGGAGAGGCGAAAGUCACACAAACCGG [C82G A111G A120C A145C C150U U176A],0.0141
8,GUGCCUUGCGCCGGGAAACCACGCAAGGGAUGGUGUCAAAUUCGGCGAAACCUAAGCGCCCGCCCGGGCGUAUGGCAACGCGGAGCCAAGCUUCGGCGCCUGCGCCGAUGGAGGUGUAGCGACUAGACGGCACCCACCUAAGGCCAACGUUAUGGUGAAGGCAUAGUCAAGGGAGGGGCGAAAGUCACACAAACCGG [C82G A111G A120C A145C C150U C169A U176G],0.00589
9,GUGCCUUGCGCCGGGAAACCACGCAAGGGAUGGUGUCAAAUUCGGCGAAACCUAAGCGCCCGCCCGGGCGUAUGGCAACGCGGAGCCAAGCUUCGGCGCCUGCGCCGAUGGAGGUGUAGCGACUAGACGGCACCCACCUAAGGCCAACGUUAUGGUGAAGGCAUAGUCAAGGGAGAGGCGAAAGUCACACAAACCGG [C82G A111G A120C A145C C150U C169A U176A],0.012
10,GUGCCUUGCGCCGGGAAACCACGCAAGGGAUGGUGUCAAAUUCGGCGAAACCUAAGCGCCCGCCCGGGCGUAUGGCAACGCGGAGCCAAGCUUCGGCGCCUGCGCCGAUGGAGGUGUAGCGACUAGACGGCACCCACCUAAGGCCAACGUUAUGGUGAAGGCAUAGUCAAGGGAGCGGCGAAAGUCACACAAACCGG [C82G A111G A120C A145C C150U C169A U176C],0.00829
11,GUGCCUUGCGCCGGGAAACCACGCAAGGGAUGGUGUCAAAUUCGGCGAAACCUAAGCGCCCGCCCGGGCGUAUGGCAACGCGGAGCCAAGCUUCGGCGCCUGCGCCGAUGGAGGUGUAGCGACUAGACGGCACCCACCUAAGGCCAACGGUAUGGUGAAGGCAUAGUCCAGGGAGAGGCGAAAGUCACACAAACCGG [C82G A111G A120C A145C C150G U176A],0.00574
12,GUGCCUUGCGCCGGGAAACCACGCAAGGGAUGGUGUCAAAUUCGGCGAAACCUAAGCGCCCGCCCGGGCGUAUGGCAACGCGGAGCCAAGCUUCGGCGCCUGCGCCGAUGGAGGUGUAGCGACUAGACGGCACCCACCUAAGGCCAACGGUAUGGUGAAGGCAUAGUCCAGGGAGCGGCGAAAGUCACACAAACCGG [C82G A111G A120C A145C C150G U176C],0.00886
13,GUGCCUUGCGCCGGGAAACCACGCAAGGGAUGGUGUCAAAUUCGGCGAAACCUAAGCGCCCGCCCGGGCGUAUGGCAACGCGGAGCCAAGCUUCGGCGCCUGCGCCGAUGGAGGUGUAGCGACUAGACGGCACCCACCUAAGGCCAACGGUAUGGUGAAGGCAUAGUCCAGGGAGGGGCGAAAGUCACACAAACCGG [C82G A111G A120C A145C C150G U176G],0.0035
14,GUGCCUUGCGCCGGGAAACCACGCAAGGGAUGGUGUCAAAUUCGGCGAAACCUAAGCGCCCGCCCGGGCGUAUGGCAACGCGGAGCCAAGCUUCGGCGCCUGCGCCGAUGGAGGUGUAGCGACUAGACGGCACCCACCUAAGGCCAACGCUAUGGUGAAGGCAUAGUCAAGGGAGAGGCGAAAGUCACACAAACCGG [C82G A111G A120C A145C C169A U176A],0.0154
15,GUGCCUUGCGCCGGGAAACCACGCAAGGGAUGGUGUCAAAUUCGGCGAAACCUAAGCGCCCGCCCGGGCGUAUGGCAACGCGGAGCCAAGCUUCGGCGCCUGCGCCGAUGGAGGUGUAGCGACUAGACGGCACCCACCUAAGGCCAACGCUAUGGUGAAGGCAUAGUCAAGGGAGCGGCGAAAGUCACACAAACCGG [C82G A111G A120C A145C C169A U176C],0.0106
